Paper doi:10.1101/2025.11.06.687013
Starred links: 1 amine or outer side, 2 acyl side, 3 side chain; linkers in the order of their positions; H or OH if unused. Non-standard residues stand in square brackets, D forms with d. No end group written: not given here. βAsp = O=C(O)[C@H](CC(=O)[*:2])N[*:1]

Target: H-2K^b (mouse (endogenous in RMA-S))
Assay: flow cytometry on cells

B1: ca3_(isoasp) (peptide)
peptide: I[βAsp]FDFPKL
  fold decrease of H-2Kb display against ca3: > 100 fold
